We go through one substance from publication PMC10960864, “Bidirectional ATP-driven transport of cobalamin by the mycobacterial ABC transporter BacA” (Nature Communications, 2024).

The series concerns Nc1ncnc2c1ncn2[C@@H]1O[C@H](COP(=O)(O)OP(=O)(O)OP(=O)(O)O)[C@@H](O)[C@H]1O. The experiment in a line: purified protein. Conditions: import direction, Mg-ATP varied, 65 µM cyanocobalamin, pH 7.5, 30 °C, 1 mM DTT.

By Km is commonly meant the substrate concentration at which the rate is half of its maximum.

BacAMm (Mycobacterium marinum M): the Km was 250 µM.
